Measurements taken from IntAct's records for PubMed 36435842.

B1: Golgi phosphoprotein 3 homolog sauron (Drosophila melanogaster (Fruit fly)), Q9VQ93 (parent)
chain: MNRSDGLVRRSVKPRENGGAEGGLNANTPDDNQDALDNLKDQEDNIDDGDSKETRLTLMEEVLLLGLKDKEGYTSFWNDCISSGLRGCILIELGLRGRVMIEKSGMRRRGLCTRKLILKSDQQTGDVLLDEALKHIKETDPPETVQSWIEYLSGETWNPLKLRYQLKNVRERLAKNLVEKGVLTTEKQNFLLFDMTTHPLSDNVVKCRLVKKIQDSVLSKWVNDPQRMDKRMLALIFLAHASDVIENAFAPLNDDDYEVAMKRVRELLDLDFEAESAKPNANEILWAVFMAFTK
partner: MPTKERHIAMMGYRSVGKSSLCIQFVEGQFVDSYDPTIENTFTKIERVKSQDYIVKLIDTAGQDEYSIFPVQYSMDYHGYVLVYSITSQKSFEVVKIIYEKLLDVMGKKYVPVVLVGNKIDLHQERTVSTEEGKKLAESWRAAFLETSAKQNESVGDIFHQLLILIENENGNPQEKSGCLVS

Variants of: B1
Conditions: with rheb_drome Rheb

Row | effect of a mutation on the interaction | Variant
1 | disrupting interaction strength | K167A;R170L
